The target in this test is H-2Kb, peptide-free ('empty') MHC class I molecule on RMA-S cells (mouse | mouse (endogenous in RMA-S)). Nature of the test: MHC stabilization assay.

The source of these data is article PMC2192062.

Consider “SIINFEKL, CTL epitope derived from ovalbumin (peptide)”, for which the SI (stabilization index) lay in the range of 450 to 500.
